Test results as given in article PMC3528738 (PLoS ONE, 2012).
Where no end group is shown, it is not given here.

Molecular target: T1, MPERp (HIV-1 (HXBc2 isolate), C-terminal carboxamide)
T1 construct: also called MPER peptide
Test: cross-linking; peptides (10 µg) in solution incubated with 20 µM BS3 for 1 h at 37°C, TCA precipitation, Tricine SDS-PAGE; detection by Western blot with MAb2F5 or by NBD fluorescence in the gel
Conditions: both partners purified

T1 sequence (P03375 656-683): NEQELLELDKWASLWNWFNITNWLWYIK

B1: FPp (peptide)
peptide: AVGIGALFLGFLGAAGSTMGARSKKK-NH2
notes: HIV-1 gp160 (gp41 amino-terminal fusion peptide), HXBc2 isolate, residues 512-534; three lysines added at the C-terminus, not of gp160 (printed as 512-534-KKK); C-terminal KKK is added to the natural stretch; also called FP peptide; fusion peptide; source: synthetic peptide (solid-phase synthesis, Fmoc chemistry; purified by HPLC)
binding result: binds
